Experimental data taken from patent US10081667B2, “Composition and method for therapeutic agent delivery during pregnancy” (University of Mississippi Medical Center, priority 2013, dated 2018).

Tests used:
[1] = ELP-VEGF pharmacokinetics and biodistribution in mice after bolus IV; format: in vivo, C57/B16 mice
Method: FIG. 12 includes graphs showing ELP-VEGF pharmacokinetics and biodistribution. FIG. 12A. Fluorescently labeled free VEGF or ELP-VEGF were administered by IV injection to C57/B16 mice. Plasma levels were determined by direct fluorescence quantitation and fit to a two-compartment pharmacokinetic model. FIG. 12B. […] FIG. 12D.
In addition to examining the ELP-VEGF activity in vitro, the pharmacokinetics (PK) and biodistribution of ELP-VEGF in comparison to free VEGF121 is also determined. Both free VEGF121 and ELP-VEGF were fluorescently labeled, and their PK and biodistribution were determined in mice after bolus intravenous administration. […] This is consistent with other reports of approximately a 30 minute half-life for recombinant VEGF in humans. ELP-VEGF cleared more slowly than free VEGF121 (FIG. 12A). […] Four hours after the infusion, the biodistribution was determined by ex vivo whole organ fluorescence imaging.

[2] = test system: human umbilical vein endothelial cells (HUVECs); test: HUVEC proliferation, MTS cell proliferation assay; format: cell-based; conditions: 72 h exposure
Method: FIG. 9 is a bar graph showing ELP-VEGF stimulation of HUVEC proliferation. HUVEC cell proliferation was determined after 72 h exposure to ELP, VEGF, or ELP-VEGF at the indicated concentrations using the MTS cell proliferation assay.
Proliferation of human umbilical vein endothelial cells (HUVECs) is stimulated when the cell are exposed to VEGF.

[3] = test system: rat model of preeclampsia; test: Blood pressure in the reduced uterine perfusion (RUPP) rat model of preeclampsia; format: in vivo, rats; conditions: 1 mg/kg/day IP minipump GD14 to GD19, measured GD19
Method: FIG. 13 is a bar graph showing effect of ELP-VEGF on blood pressure in the reduced uterine perfusion model. A study was conducted in pregnant rats subjected to surgical reduction of uterine blood flow (RUPP) on gestational day 14 (GD14). ELP-VEGF or saline control was administered by continuous infusion via IP minipump from GD14 to GD19 at a dose of 1 mg/kg/day. Data represent the mean arterial pressure as assessed by indwelling carotid catheters on GD19. Individual animal data are indicated by the points.
Whether ELP-VEGF was effective for lowering blood pressure in a rat model of preeclampsia is texted next. Pregnant rats at gestational day 14 (GD14) were subjected to surgery to reduce ale blood flow to the placentas. It has previously been shown that this model, achieved by partially restricting the ovarian arteries and the dorsal aorta, results in a preeclampsia-like syndrome in the rat. The effects mirror human preeclampsia in that the rats develop hypertension, proteinuria, reduced renal function, fetal growth restriction, and some fetal loss. […] The hypertension associated with this model can be seen in FIG. 13, where the mean arterial pressure increased from about 105 mmHg in normal pregnant rats on GD19 to over 120 mmHg in the preeclampsia model as measured by a pressure transducer inserted into a carotid arterial catheter.

NF-κB = test: In vitro NF-κB activation assay: nuclear localization of NF-κB in TNFα-stimulated HUVECs; format: cell-based, human; conditions: 20 μM pretreatment 24 h, TNFα 1 h
Method: FIG. 14 includes images and a bar graph illustrating inhibition of NF-κB activation with an ELP-delivered p50 peptide. FIG. 14A. Localization of NF-κB in HUVEC cells before and after TNFα stimulation. HUVECs were treated with SynB1-ELP control or SynB1-ELP-p50 (20 μM) for 24 h. Cells were then stimulated for 1 h with TNFα, and NF-κB localization was determined by immunostaining for the p65 subunit (green) and for nuclei with DAPI (blue). FIG. 14B. The nuclear cytoplasmic ratio of NF-κB staining was determined under each treatment condition. Data represent the mean of 30-60 cells per treatment and are averaged over three experiments.
This investigation has developed an ELP-fused peptide inhibitor of activated NF-κB. NF-κB activation upon extracellular signaling is mediated by phosphorylation and release of the natural inhibitor I-κB from the NF-κB p50/p65 heterodimer. I-κB release exposes a nuclear localization sequence (NLS) on the p50 subunit of NF-κB, and once exposed, this NLS mediates nuclear import of NF-κB. Once inside the nucleus, NF-κB binds to response elements on its target genes and regulates gene expression. […] Stimulation of cultured HUVECs with TNF-α leads to rapid activation of the NF-κB pathway, and this can be detected by monitoring nuclear localization of NF-κB (FIG. 14A, left panel).

endothelin-1 = test: Endothelin-1 release by HUVECs, ELISA; format: cell-based, human
Method: FIG. 15 includes a graph illustrating the inhibition of endothelin release by SynB1-ELP-p50. HUVECs growing in 24-well plates were treated with 50 μM SynB1-ELP or SynB1-ELP-p50 overnight, then 50 or 100 ng/mL […]. Cells were incubated overnight, and culture media was collected and frozen.
TNFα stimulation also leads to the secretion of the vasoactive peptide endothelin-1 by HUVECs. This endothelin release contributes to the hypertension associated with the pro-inflammatory environment in preeclampsia.

[4] = rat, in vivo

| Molecule | fluorescence in the urine at the end of the experiment [1] | plasma clearance rate relative to free VEGF121 ([1]; IV) | kidney deposition relative to free VEGF121 ([1]; four hours after the infusion) | organ accumulation, ex vivo whole organ fluorescence imaging ([1]; four hours after the infusion) | stimulation of HUVEC proliferation [2] | mean arterial pressure [3] | nuclear translocation of NF-κB after TNF-α stimulation (NF-κB) | endothelin release from unstimulated HUVECs (endothelin-1; 50 μM) | endothelin release from TNFα-stimulated HUVECs (endothelin-1; 50 μM pre-treatment overnight) | entry into fetal circulation / pups [4] | terminal half-life (in words) [4] |
| --- | --- | --- | --- | --- | --- | --- | --- | --- | --- | --- | --- |
| ELP-VEGF: ELP sequence (SEQ ID NO: 4) fused to a C-terminal VEGF121 sequence, SEQ ID NO: 14; 73 kDa protein (protein, synthetic ELP-VEGF sequences, 73 kDa protein) MSKGPGVGVPGAGVPGGGVPGAGVPGGGVPGAGVPGGGVPGAGVPGGGVPGAGVPGGGVPGAGVPGGGVPGAGVPGGGVPGAGVPGVGVPGAGVPGGGVPGAGVPGGGVPGAGVPGGGVPGAGVPGGGVPGAGVPGGGVPGAGVPGGGVPGAGVPGGGVPGAGVPGVGVPGAGVPGGGVPGAGVPGGGVPGAGVPGGGVPGAGVPGGGVPGAGVPGGGVPGAGVPGGGVPGAGVPGGGVPGAGVPGVGVPGAGVPGGGVPGAGVPGGGVPGAGVPGGGVPGAGVPGGGVPGAGVPGGGVPGAGVPGGGVPGAGVPGGGVPGAGVPGVGVPGAGVPGGGVPGAGVPGGGVPGAGVPGGGVPGAGVPGGGVPGAGVPGGGVPGAGVPGGGVPGAGVPGGGVPGAGVPGVGVPGAGVPGGGVPGAGVPGGGVPGAGVPGGGVPGAGVPGGGVPGAGVPGGGVPGAGVPGGGVPGAGVPGGGVPGAGVPGVGVPGAGVPGGGVPGAGVPGGGVPGAGVPGGGVPGAGVPGGGVPGAGVPGGGVPGAGVPGGGVPGAGVPGGGVPGAGVPGVGVPGAGVPGGGVPGAGVPGGGVPGAGVPGGGVPGAGVPGGGVPGAGVPGGGVPGAGVPGGGVPGAGVPGGGVPGAGVPGVGVPGAGVPGGGVPGAGVPGGGVPGAGVPGGGVPGAGVPGGGVPGAGVPGGGVPGAGVPGGGVPGAGVPGGGVPGAGVPGVGVPGAGVPGGGVPGAGVPGGGVPGAGVPGGGVPGAGVPGGGVPGAGVPGGGVPGAGVPGGGVPGAGVPGGGVPGAGVPGWPGSGAPMAEGGGQNHHEVVKFMDVYQRSYCHPIETLVDIFQEYPDEIEYIFKPSCVPLMRCGGCCNDEGLECVPTEESNITMQIMRIKPHQGQHIGEMSFLQHNKCECRPKKDRARQEKCDKPRR | less fluorescence detectable in the urine | about half the rate of free VEGF121 | significantly lower than for free VEGF121 | accumulated more highly in the spleen and liver than did free VEGF121 | stimulated HUVEC proliferation with equal potency | effectively lowered the blood pressure of the preeclampsia-induced rats to near normal levels |  |  |  |  |  |
| SynB1-ELP-p50: SynB1 peptide fused to N-terminus of ELP (SEQ ID NO: 4), p50 peptide at the C-terminus; SEQ ID NO: 15 (protein, synthetic SynB1-ELP-p50 sequence) MRGGRLSYSRRRFSTSTGRGCGPGVGVPGAGVPGGGVPGAGVPGGGVPGAGVPGGGVPGAGVPGGGVPGAGVPGGGVPGAGVPGGGVPGAGVPGGGVPGAGVPGVGVPGAGVPGGGVPGAGVPGGGVPGAGVPGGGVPGAGVPGGGVPGAGVPGGGVPGAGVPGGGVPGAGVPGGGVPGAGVPGVGVPGAGVPGGGVPGAGVPGGGVPGAGVPGGGVPGAGVPGGGVPGAGVPGGGVPGAGVPGGGVPGAGVPGGGVPGAGVPGVGVPGAGVPGGGVPGAGVPGGGVPGAGVPGGGVPGAGVPGGGVPGAGVPGGGVPGAGVPGGGVPGAGVPGGGVPGAGVPGVGVPGAGVPGGGVPGAGVPGGGVPGAGVPGGGVPGAGVPGGGVPGAGVPGGGVPGAGVPGGGVPGAGVPGGGVPGAGVPGVGVPGAGVPGGGVPGAGVPGGGVPGAGVPGGGVPGAGVPGGGVPGAGVPGGGVPGAGVPGGGVPGAGVPGGGVPGAGVPGVGVPGAGVPGGGVPGAGVPGGGVPGAGVPGGGVPGAGVPGGGVPGAGVPGGGVPGAGVPGGGVPGAGVPGGGVPGAGVPGVGVPGAGVPGGGVPGAGVPGGGVPGAGVPGGGVPGAGVPGGGVPGAGVPGGGVPGAGVPGGGVPGAGVPGGGVPGAGVPGVGVPGAGVPGGGVPGAGVPGGGVPGAGVPGGGVPGAGVPGGGVPGAGVPGGGVPGAGVPGGGVPGAGVPGGGVPGAGVPGVGVPGAGVPGGGVPGAGVPGGGVPGAGVPGGGVPGAGVPGGGVPGAGVPGGGVPGAGVPGGGVPGAGVPGGGVPGAGVPGWPGSGGVQRKRQKLMP |  |  |  |  |  |  | completely blocks this nuclear translocation of NF-κB | decreases the endothelin release from unstimulated HUVECs | the endothelin release is completely blocked | effectively prevents the peptide from entering the fetal circulation | greater than two hours |
